Test results from patent EP1922329B1.

Molecular target: human rhinovirus serotype HRV-39
Assay: cell-based or functional assay

Substance	IC50, CPE assay [µg/mL]	fold lower IC50 than soluble ICAM-1, CPE assay [fold]
IC1-5D/IgA (ICAM/IgA fusion, gift of Dr. Tim Springer; Martin, et al., 1993) (Fc fusion)	0.12	11.3
soluble ICAM-1 (from UniProt P05362 28-480) (receptor)	1.35	
